Laboratory results taken from patent US20160193299A1, “MODIFIED NUCLEOSIDE, NUCLEOTIDE, AND NUCLEIC ACID COMPOSITIONS” (Moderna Therapeutics, Inc., priority 2011, published 2016).

Assays:
reticulocytes = assay: Example 22 non-human primate study, reticulocyte count; format: in vivo, cynomolgus monkey
Experimental: (§1) LNP formulations, shown in Table 31 (above), were administered to non-human primates (NHP) (cynomolgus monkey) (n=2) as intravenous injection (IV). The NHP were administered a single modified mRNA IV dose of 0.5 mg/kg, 0.05 mg/kg or 0.005 mg/kg of G-CSF or EPO in a dose volume of 0.5 mL/kg. The NHPs were bled before dosing with the modified mRNA LNP formulations to determine protein expression in the serum and a baseline complete blood count. After administration with the G-CSF modified mRNA formulation the NHP were bled at 8, 24, 48 and 72 hours to determined protein expression. After administration with the EPO modified mRNA formulation the NHP were bled at 8, 24, 48, 72 hours and 7 days to determined protein expression.
Samples collected from the NHPs after they were administered with G-CSF or EPO modified mRNA formulations were analyzed by ELISA to determine protein expression. Neutrophil and reticulocyte count was also determined pre-dose, 24 hours, 3 days, 7 days, 14 days and 18 days after administration of the modified G-CSF or EPO formulation.

G-CSF = assay: Example 16 lipid nanoparticle in vivo study, serum G-CSF ELISA; parameters: species or system mice; conditions: for G-CSF Serum Concentration 8-12 hours after administration: IV (LNP); for G-CSF Protein Expression, Conc: mice IV LNP, serum 8 hrs
Experimental: Mice were sacrificed at 8 hrs after dosing. […] Protein expression was determined by ELISA.
As used in Table 30, the symbol “˜” means about.

HEK293 = assay: Example 46B percent-modified G-CSF mRNA transfected in HEK293, secreted G-CSF ELISA; format: cell-based, human
Experimental: Human embryonic kidney epithelial (HEK293) cells were seeded on 96-well plates at a density of 30,000 cells per well in 100 ul cell culture medium. 250 ng of modified G-CSF mRNA (SEQ ID NO: 6; polyA tail of approximately 160 nucleotides not shown in sequence; 5′cap, Cap1) formulated with RNAiMAX™ (Invitrogen, Carlsbad, Calif.) was added to a well. The G-CSF was completely modified with 5mC and pseudoU (100% modification), not modified with 5mC and pseudoU (0% modification) or was partially modified with 5mC and pseudoU so the mRNA would contain 75% modification, 50% modification or 25% modification. Control samples (AK 5/2, mCherry (SEQ ID NO: 7; polyA tail of approximately 160 nucleotides not shown in sequence; 5′cap, Cap1; fully modified 5mC and pseudoU) and untreated) were also analyzed. […] The supernatants were harvested after 16 hours and the secreted G-CSF protein was analyzed by ELISA.

hematocrit (HCT) = assay: Example 22 non-human primate study, hematocrit (HCT); format: in vivo, cynomolgus monkey
Experimental: as §1

B1: G-CSF: human G-CSF mRNA SEQ ID NO: 6, polyA ~160 nt, Cap1, fully modified with 5-methylcytosine and pseudouridine (nucleic acid, listed as Homo sapiens)
chain: GGGAAAUAAGAGAGAAAAGAAGAGUAAGAAGAAAUAUAAGAGCCACCAUGGCCGGUCCCGCGACCCAAAGCCCCAUGAAACUUAUGGCCCUGCAGUUGCUGCUUUGGCACUCGGCCCUCUGGACAGUCCAAGAAGCGACUCCUCUCGGACCUGCCUCAUCGUUGCCGCAGUCAUUCCUUUUGAAGUGUCUGGAGCAGGUGCGAAAGAUUCAGGGCGAUGGAGCCGCACUCCAAGAGAAGCUCUGCGCGACAUACAAACUUUGCCAUCCCGAGGAGCUCGUACUGCUCGGGCACAGCUUGGGGAUUCCCUGGGCUCCUCUCUCGUCCUGUCCGUCGCAGGCUUUGCAGUUGGCAGGGUGCCUUUCCCAGCUCCACUCCGGUUUGUUCUUGUAUCAGGGACUGCUGCAAGCCCUUGAGGGAAUCUCGCCAGAAUUGGGCCCGACGCUGGACACGUUGCAGCUCGACGUGGCGGAUUUCGCAACAACCAUCUGGCAGCAGAUGGAGGAACUGGGGAUGGCACCCGCGCUGCAGCCCACGCAGGGGGCAAUGCCGGCCUUUGCGUCCGCGUUUCAGCGCAGGGCGGGUGGAGUCCUCGUAGCGAGCCACCUUCAAUCAUUUUUGGAAGUCUCGUACCGGGUGCUGAGACAUCUUGCGCAGCCGUGAAGCGCUGCCUUCUGCGGGGCUUGCCUUCUGGCCAUGCCCUUCUUCUCUCCCUUGCACCUGUACCUCUUGGUCUUUGAAUAAAGCCUGAGUAGGAAG
modifications: polyA ~160, Cap1, 5mC/pseudouridine modified
With B1 the Reticulocyte count (reticulocytes; Table 39, Female NHP, 0.5 mg/kg, 3 days) was 0.017 10^12/L, the Reticulocyte count (reticulocytes; Table 39, Female NHP, 0.5 mg/kg, 7 days) was 0.021 10^12/L and the Reticulocyte count (reticulocytes; Table 39, Female NHP, 0.5 mg/kg, Pre-dose) was 0.055 10^12/L. The Reticulocyte count (reticulocytes; Table 39, Male NHP, 0.005 mg/kg, 14/18 days) was 0.069 10^12/L, the Reticulocyte count (reticulocytes; Table 39, Male NHP, 0.005 mg/kg, 24 hours) was 0.037 10^12/L and the Reticulocyte count (reticulocytes; Table 39, Male NHP, 0.005 mg/kg, 3 days) was 0.037 10^12/L. For the same molecule, the Reticulocyte count (reticulocytes; Table 39, Male NHP, 0.005 mg/kg, 7 days) was 0.046 10^12/L, the Reticulocyte count (reticulocytes; Table 39, Male NHP, 0.005 mg/kg, Pre-dose) was 0.037 10^12/L and the Reticulocyte count (reticulocytes; Table 39, Male NHP, 0.05 mg/kg, 14/18 days) was 0.107 10^12/L. For the same molecule, the Reticulocyte count (reticulocytes; Table 39, Male NHP, 0.05 mg/kg, 24 hours) was 0.048 10^12/L, the Reticulocyte count (reticulocytes; Table 39, Male NHP, 0.05 mg/kg, 3 days) was 0.101 10^12/L and the Reticulocyte count (reticulocytes; Table 39, Male NHP, 0.05 mg/kg, 7 days) was 0.157 10^12/L. The Reticulocyte count (reticulocytes; Table 39, Male NHP, 0.05 mg/kg, Pre-dose) was 0.055 10^12/L, the Reticulocyte count (reticulocytes; Table 39, Male NHP, 0.5 mg/kg, 14/18 days) was 0.029 10^12/L and the Reticulocyte count (reticulocytes; Table 39, Male NHP, 0.5 mg/kg, 24 hours) was 0.032 10^12/L. For the same molecule, the Reticulocyte count (reticulocytes; Table 39, Male NHP, 0.5 mg/kg, 3 days) was 0.041 10^12/L, the Reticulocyte count (reticulocytes; Table 39, Male NHP, 0.5 mg/kg, 7 days) was 0.009 10^12/L and the Reticulocyte count (reticulocytes; Table 39, Male NHP, 0.5 mg/kg, Pre-dose) was 0.067 10^12/L. The “G-CSF Serum Concentration 8-12 hours after administration” value (“G-CSF Serum Concentration 8-12 hours” for short) (G-CSF; 1 ug) was ~20,000 pg/ml, the “G-CSF Serum Concentration 8-12 hours” value (G-CSF; 10 ug) was ~1,000,000 pg/ml and the “G-CSF Serum Concentration 8-12 hours” value (G-CSF; 100 ug) was ~5,000,000 pg/ml. The “G-CSF Protein Expression, Conc” value (G-CSF; 10 ug) was 1204.82 ng/mL, the “G-CSF Protein Expression, Conc” value (G-CSF; 100 ug) was 4722.20 ng/mL and the half-life (HEK293) was 8 to 10 h. For the same molecule, the HCT (hematocrit (HCT); Female NHP, 0.005 mg/kg, 14/18 days) was 0.42 L/L, the HCT (hematocrit (HCT); Female NHP, 0.005 mg/kg, 24 hours) was 0.42 L/L and the HCT (hematocrit (HCT); Female NHP, 0.005 mg/kg, 3 days) was 0.41 L/L. For the same molecule, the HCT (hematocrit (HCT); Female NHP, 0.005 mg/kg, 7 days) was 0.42 L/L, the HCT (hematocrit (HCT); Female NHP, 0.005 mg/kg, Pre-dose) was 0.42 L/L and the HCT (hematocrit (HCT); Female NHP, 0.05 mg/kg, 14/18 days) was 0.4 L/L. For the same molecule, the HCT (hematocrit (HCT); Female NHP, 0.05 mg/kg, 24 hours) was 0.4 L/L, the HCT (hematocrit (HCT); Female NHP, 0.05 mg/kg, 3 days) was 0.39 L/L and the HCT (hematocrit (HCT); Female NHP, 0.05 mg/kg, 7 days) was 0.4 L/L. The HCT (hematocrit (HCT); Female NHP, 0.05 mg/kg, Pre-dose) was 0.44 L/L, the HCT (hematocrit (HCT); Female NHP, 0.5 mg/kg, 14/18 days) was 0.37 L/L and the HCT (hematocrit (HCT); Female NHP, 0.5 mg/kg, 24 hours) was 0.38 L/L. The HCT (hematocrit (HCT); Female NHP, 0.5 mg/kg, 3 days) was 0.38 L/L, the HCT (hematocrit (HCT); Female NHP, 0.5 mg/kg, 7 days) was 0.38 L/L and the HCT (hematocrit (HCT); Female NHP, 0.5 mg/kg, Pre-dose) was 0.43 L/L. The HCT (hematocrit (HCT); Male NHP, 0.005 mg/kg, 14/18 days) was 0.41 L/L, the HCT (hematocrit (HCT); Male NHP, 0.005 mg/kg, 24 hours) was 0.4 L/L and the HCT (hematocrit (HCT); Male NHP, 0.005 mg/kg, 3 days) was 0.4 L/L. For the same molecule, the HCT (hematocrit (HCT); Male NHP, 0.005 mg/kg, 7 days) was 0.39 L/L, the HCT (hematocrit (HCT); Male NHP, 0.005 mg/kg, Pre-dose) was 0.42 L/L and the HCT (hematocrit (HCT); Male NHP, 0.05 mg/kg, 14/18 days) was 0.44 L/L. It also gave an HCT (hematocrit (HCT); Male NHP, 0.05 mg/kg, 24 hours) of 0.39 L/L, an HCT (hematocrit (HCT); Male NHP, 0.05 mg/kg, 3 days) of 0.41 L/L and an HCT (hematocrit (HCT); Male NHP, 0.05 mg/kg, 7 days) of 0.42 L/L. The HCT (hematocrit (HCT); Male NHP, 0.05 mg/kg, Pre-dose) was 0.44 L/L, the HCT (hematocrit (HCT); Male NHP, 0.5 mg/kg, 14/18 days) was 0.34 L/L and the HCT (hematocrit (HCT); Male NHP, 0.5 mg/kg, 24 hours) was 0.37 L/L. It also gave an HCT (hematocrit (HCT); Male NHP, 0.5 mg/kg, 3 days) of 0.39 L/L, an HCT (hematocrit (HCT); Male NHP, 0.5 mg/kg, 7 days) of 0.39 L/L and an HCT (hematocrit (HCT); Male NHP, 0.5 mg/kg, Pre-dose) of 0.46 L/L.
